Measurements reported in article PMC12711028.

Assays:
[1] = target: Ss-DAF-2B, isoform B of the insulin receptor homolog Ss-DAF-2 of Strongyloides stercoralis (Strongyloides stercoralis)
[2] = target: Ss-DAF-2B, isoform B of the insulin receptor homolog Ss-DAF-2 of Strongyloides stercoralis (Strongyloides stercoralis); remark: listed apart in the source

## bovine insulin (ligand)
[1]
  feeding rate of S. stercoralis iL3 with bovine insulin; endogenous Ss-DAF-2, isoforms not told apart: 38.2%
[2]
  Ss-daf-2 transcript level in iL3 treated with bovine insulin, fold change against control (RT-PCR); no significant effect: 1 fold

## human insulin (Hs-INS) (from UniProt P01308 1-110) (ligand)
[1]
  feeding rate of S. stercoralis iL3 with human insulin compared with porcine and bovine insulin at equivalent concentrations; endogenous Ss-DAF-2, isoforms not told apart: 72.2%
[2]
  Ss-daf-2 transcript level in iL3 treated with human insulin, fold change against control (RT-PCR): 2.6 fold

## porcine insulin (ligand)
[1]
  feeding rate of S. stercoralis iL3 with porcine insulin; endogenous Ss-DAF-2, isoforms not told apart: 0.7%
[2]
  Ss-daf-2 transcript level in iL3 treated with porcine insulin, fold change against control (RT-PCR); no significant effect: 0.9 fold
